Results on 13 molecules are retold here after paper PMC3188589, “Structural and Biochemical Studies of Human 4-hydroxy-2-oxoglutarate Aldolase: Implications for Hydroxyproline Metabolism in Primary Hyperoxaluria” (PLoS ONE, 2011).

For orientation: Km means the concentration of substrate that gives half-maximal velocity. The kcat is the maximal rate divided by the concentration of active sites. As a reminder, the kcat/Km is the second-order rate constant that governs catalysis at low substrate concentration. Usually stoichiometry N stands for the number of molecules, sites or subunits per partner or assembly. For orientation: Kd means a measure of binding affinity in units of concentration. Read a low Kd as a tighter complex.

The labels stand for the following.
B1: human HOGA (hHOGA) (Homo sapiens; Y140F) (protein)
chain: ASGEGKKVDIAGIYPPVTTPFTATAEVDYGKLEENLHKLGTFPFRGFVVQGSNGEFPFLTSSERLEVVSRVRQAMPKNRLLLAGSGCESTQATVEMTVSMAQVGADAAMVVTPCFYRGRMSSAALIHHYTKVADLSPIPVVLYSVPANTGLDLPVDAVVTLSQHPNIVGMKDSGGDVTRIGLIVHKTRKQDFQVLAGSAGFLMASYALGAVGGVCALANVLGAQVCQLERLCCTGQWEDAQKLQHRLIEPNAAVTRRFGIPGLKKIMDWFGYYGGPCRAPLQELSPAEEEALRMDFTSNGWL
notes: His-tag (WT, Y140F) cleavable by PreScission leaving GPH, 33,097 Da tag-free; S77, N78 and S198 mutants as MBP fusion, MBP cleaved; tetramer
B2: human HOGA (hHOGA) (Homo sapiens; S77V) (protein)
chain: B1 chain with S52V, F115Y
notes: as for B1
B3: human HOGA (hHOGA) (Homo sapiens) (protein)
chain: B1 chain with F115Y
notes: as for B1
B4: human HOGA (hHOGA) (Homo sapiens; N78Q) (protein)
chain: B1 chain with N53Q, F115Y
notes: as for B1
B5: human HOGA (hHOGA) (Homo sapiens; S77A) (protein)
chain: B1 chain with S52A, F115Y
notes: as for B1
B6: human HOGA (hHOGA) (Homo sapiens; N78A) (protein)
chain: B1 chain with N53A, F115Y
notes: as for B1
B7: human HOGA (hHOGA) (Homo sapiens; S77T) (protein)
chain: B1 chain with S52T, F115Y
notes: as for B1
B8: human HOGA (hHOGA) (Homo sapiens; S198T) (protein)
chain: B1 chain with F115Y, S173T
notes: as for B1
B9: human HOGA (hHOGA) (Homo sapiens; S198A) (protein)
chain: B1 chain with F115Y, S173A
notes: as for B1
B10: human HOGA (hHOGA) (Homo sapiens; N78T) (protein)
chain: B1 chain with N53T, F115Y
notes: as for B1
B11: human 4-hydroxy-2-oxoglutarate aldolase (hHOGA), His-tag free (enzyme)
chain: GPHASGEGKKVDIAGIYPPVTTPFTATAEVDYGKLEENLHKLGTFPFRGFVVQGSNGEFPFLTSSERLEVVSRVRQAMPKNRLLLAGSGCESTQATVEMTVSMAQVGADAAMVVTPCYYRGRMSSAALIHHYTKVADLSPIPVVLYSVPANTGLDLPVDAVVTLSQHPNIVGMKDSGGDVTRIGLIVHKTRKQDFQVLAGSAGFLMASYALGAVGGVCALANVLGAQVCQLERLCCTGQWEDAQKLQHRLIEPNAAVTRRFGIPGLKKIMDWFGYYGGPCRAPLQELSPAEEEALRMDFTSNGWL
notes: three additional N-terminal residues left from the PreScission Protease recognition site after removal of the His-tag; the protein starts at residue 26; 302 residues in the mature form; Tetramer (dimer of dimers) in the crystal; dimer-tetramer equilibrium in solution; also called human HOGA; HOGA1; source: E. coli BL21*(DE3), purified (Ni-NTA, Q-Sepharose HP, Superdex 200); His-tag removed with …

Positions count from the first letter of the chain named. Numbers in names are those of the source. Where “and” joins values, the source holds several entries; their conditions need not be identical. Equal values may be shown once.

The first series has as its target T1, bovine HOGA (bHOGA) (Bos taurus, UniProt Q0P5I5).
T1 construct: gene HOGA1; native mature enzyme purified from kidney cortex mitochondria, begins at residue 26, 35,217 Da printed, no tag
T1 sequence (Q0P5I5 26-327): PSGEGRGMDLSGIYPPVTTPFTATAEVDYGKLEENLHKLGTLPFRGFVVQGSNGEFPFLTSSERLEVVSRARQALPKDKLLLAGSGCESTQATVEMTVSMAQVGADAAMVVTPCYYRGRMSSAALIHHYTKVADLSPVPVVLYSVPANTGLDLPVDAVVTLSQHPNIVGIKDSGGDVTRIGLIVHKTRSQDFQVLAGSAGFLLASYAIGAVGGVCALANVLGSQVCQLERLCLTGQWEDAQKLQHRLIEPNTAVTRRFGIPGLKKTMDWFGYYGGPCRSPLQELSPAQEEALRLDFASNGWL
The series is described as follows: phenylhydrazine assay of glyoxylate formation. It counts as biochemical. The following applies: racemic HOG; native enzyme from kidney mitochondria.
For the molecule `O=C(O)C(=O)CC(O)C(=O)O` (racemic) [HOG], the “phenylhydrazine assay of glyoxylate formation” value is recorded as “production of glyoxylate from HOG synthesized in-house”.

A further series concerns the target T2, human HOGA (hHOGA) (Homo sapiens, UniProt Q86XE5).
T2 construct: gene HOGA1; His-tag (WT, Y140F) cleavable by PreScission leaving GPH, 33,097 Da tag-free; S77, N78 and S198 mutants as MBP fusion, MBP cleaved; tetramer
T2 sequence (Q86XE5 26-327): B1 chain with F115Y
Kind of series: X-ray crystal structure, […] Å. In kind it is binding. The following applies: covalent Schiff base with Lys196; 10 mM sodium pyruvate in crystallization, pH 7.5, 20°C.
As for `CC(=O)C(=O)O` [pyruvate], the “X-ray crystal structure, 1.97 Å” value was “clear continuous electron density for the imine Schiff base adduct between the ε-amino group of”.

Substrate in another series: O=C(O)C(=O)CC(O)C(=O)O
Kind of series: purified protein. It counts as biochemical, Homo sapiens. The following applies: racemic HOG, 100 mM TRIS pH 8.5, 37°C, aldol cleavage.
Regarding B1, the Km was found to be 8 ± 1 µM, the kcat was determined as 5.2 ± 0.1 s⁻¹ and the kcat/Km is 650000 ± 81000 M⁻¹ s⁻¹.
The like results for B2 were, in that order, 82 ± 7 µM, 1.2 ± 0.1 s⁻¹ and 15000 ± 1000 M⁻¹ s⁻¹.
For the molecule B3, the Km came out at 11 ± 1 µM, the kcat was found to be 6.1 ± 0.1 s⁻¹ and the kcat/Km was 555000 ± 50000 M⁻¹ s⁻¹.
For B4, the Km was 281 ± 14 µM, the kcat is 6.2 ± 0.1 s⁻¹ and the kcat/Km came out at 22000 ± 1000 M⁻¹ s⁻¹.
The like results for B5 were, in that order, 84 ± 5 µM, 2.5 ± 0.1 s⁻¹ and 30000 ± 2000 M⁻¹ s⁻¹.
The like results for B6 were, in that order, 66 ± 4 µM, 7.6 ± 0.1 s⁻¹ and 115000 ± 7000 M⁻¹ s⁻¹.
For B7, the Km amounted to 58 ± 8 µM, the kcat stood at 0.8 ± 0.1 s⁻¹ and the kcat/Km came out at 14000 ± 2000 M⁻¹ s⁻¹.
In the same order, the values of B8 are 77 ± 5 µM, 7.8 ± 0.1 s⁻¹ and 101000 ± 7000 M⁻¹ s⁻¹.
The like results for B9 were, in that order, 44 ± 2 µM, 2.4 ± 0.1 s⁻¹ and 55000 ± 3000 M⁻¹ s⁻¹.
For B10, the Km turned out to be 16 ± 1 µM, the kcat was 4 ± 0.1 s⁻¹ and the kcat/Km stood at 250000 ± 16000 M⁻¹ s⁻¹.

Another series deals with the molecule itself. Kind of series: crystal structure; apoenzyme (2.5 A) and pyruvate-Schiff base complex (1.97 A), space group P6(4)22, one molecule in the asymmetric unit; the tetramer is generated by crystallographic symmetry.
Settings: not given
Turning to B11, the “stoichiometry N” value came out at 4.

Another series deals with the molecule itself. Kind of series: AUC; sedimentation equilibrium; His-tag free hHOGA at 0.43, 0.82, 1.25 mg/ml and a replicate at 0.45, 0.78, 1.14 mg/ml, two rotor speeds; 20 mM HEPES pH 7.5, 100 mM NaCl; fit to a dimer-tetramer model (HETEROANALYSIS, SEDPHAT); tetramer to dimers.
Settings: not given
In the case of B11, the Kd is ~60 µM and 58 to 63 µM.
